Source: patent publication US20210214414A1 (Pfizer, published 2021)

How the values were obtained:
Human SLIT2-N [1] = target: T1, Human SLIT2-N (human, UniProt O94813 31-1121, limits assumed); test: summary of the Examples (FIGS. 11-13) against ROBO2-Fc 2.2
T1 construct: domain: SLIT2-N (N terminal fragment); Soluble analyte in SPR, d2-labelled in HTRF, overexpressed on HEK293 cells in flow cytometry; also called human SLIT2-N (N terminal fragment)
T1 sequence (looked up): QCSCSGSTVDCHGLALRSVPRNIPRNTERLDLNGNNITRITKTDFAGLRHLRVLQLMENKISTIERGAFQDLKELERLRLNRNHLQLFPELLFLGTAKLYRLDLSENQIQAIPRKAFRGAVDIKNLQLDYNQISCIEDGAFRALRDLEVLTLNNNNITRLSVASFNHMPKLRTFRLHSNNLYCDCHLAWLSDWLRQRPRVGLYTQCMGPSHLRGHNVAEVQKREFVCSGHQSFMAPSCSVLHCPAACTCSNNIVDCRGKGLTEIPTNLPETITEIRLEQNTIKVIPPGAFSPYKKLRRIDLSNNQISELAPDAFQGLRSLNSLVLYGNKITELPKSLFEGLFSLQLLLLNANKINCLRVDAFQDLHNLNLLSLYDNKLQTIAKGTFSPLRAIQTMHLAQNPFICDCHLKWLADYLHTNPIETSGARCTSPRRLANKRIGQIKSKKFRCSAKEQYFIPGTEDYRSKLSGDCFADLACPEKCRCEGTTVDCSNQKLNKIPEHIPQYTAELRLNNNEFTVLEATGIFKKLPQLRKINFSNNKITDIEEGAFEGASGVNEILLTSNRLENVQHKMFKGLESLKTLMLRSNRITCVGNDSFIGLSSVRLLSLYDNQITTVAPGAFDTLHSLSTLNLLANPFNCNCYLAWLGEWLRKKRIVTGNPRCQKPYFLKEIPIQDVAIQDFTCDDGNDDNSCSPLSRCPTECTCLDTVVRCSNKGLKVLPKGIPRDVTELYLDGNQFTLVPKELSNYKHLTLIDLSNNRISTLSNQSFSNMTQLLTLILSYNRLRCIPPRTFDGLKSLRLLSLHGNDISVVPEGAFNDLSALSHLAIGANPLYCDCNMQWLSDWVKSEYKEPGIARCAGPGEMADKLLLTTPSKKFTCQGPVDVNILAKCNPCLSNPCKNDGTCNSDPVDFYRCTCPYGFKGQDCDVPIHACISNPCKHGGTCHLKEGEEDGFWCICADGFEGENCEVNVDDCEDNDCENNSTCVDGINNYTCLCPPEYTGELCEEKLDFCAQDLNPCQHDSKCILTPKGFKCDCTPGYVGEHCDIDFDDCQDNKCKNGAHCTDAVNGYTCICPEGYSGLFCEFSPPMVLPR

Human SLIT2-N [2] = target: T1, Human SLIT2-N; test: flow cytometry, AF647-labelled ROBO2-Fc S17T/R73Y on HEK293 cells overexpressing human SLIT2-N (FIG. 11)
Protocol: After incubation, […] FACS buffer was added per well to wash the cells. After washing, cells were resuspended in buffer for data acquisition on a Fortessa Flow Cytometer.

Human SLIT2-N [3] = target: T1, Human SLIT2-N; test: HTRF competition: d2-labelled human SLIT2-N binding to ROBO2 on HEK293 cells (competitor: cell surface ROBO2) (FIG. 12)
Protocol: After incubation, fluorescence at 665 nm and 620 nm was measured on an Envision multilabel plate reader. The HTRF Ratio was calculated as follows: fluorescence at 665 nm/fluorescence at 620 nm×10,000.

fold increase of binding affinity to SLIT2 against SEQ ID NO: 1 (Human SLIT2-N [1]): ~10 fold
EC50 (Human SLIT2-N [2]): 2.5 nM
IC50 (Human SLIT2-N [3]): 1.4 nM
B1: ROBO2-Fc S17T/R73Y (Fc fusion)
chain: SRLRQEDFPPRIVEHPTDVIVSKGEPTTLNCKAEGRPTPTIEWYKDGERVETDKDDPRSHRMLLPSGSLFFLYIVHGRRSKPDEGSYVCVARNYLGEAVSRNASLEVALLRDDFRQNPTDVVVAAGEPAILECQPPRGHPEPTIYWKKDKVRIDDKEERISIRGGKLMISNTRKSDAGMYTCVGTNMVGERDSDPAELTVFERGGSGGSEPKSSDKTHTCPPCPAPEAAGAPSVFLFPPKPKDTLMISRTPEVTCVVVDVSHEDPEVKFNWYVDGVEVHNAKTKPREEQYNSTYRVVSVLTVLHQDWLNGKEYKCKVSNKALPAPIEKTISKAKGQPREPQVYTLPPSREEMTKNQVSLTCLVKGFYPSDIAVEWESNGQPENNYKTTPPVLDSDGSFFLYSKLTVDKSRWQQGNVFSCSVMHEALHNHYTQKSLSLSPGK
notes: Labelled with Alexa Fluor 647 in the flow cytometry assay; also called ROBO2-Fc 517T/R73Y; ROBO2-Fc S17T/R73Y-AF647
